Results: PMC5519978 (2017)
No end group written: not given here.

T1: hBRM-B AT-BRD (AT-hook and bromodomain of human BRM, short isoform, residues 1358-1399 and 1418-1508) (human, UniProt P51531 1358-1399; P51531 1418-1508, 15N-labelled)
T1 chain: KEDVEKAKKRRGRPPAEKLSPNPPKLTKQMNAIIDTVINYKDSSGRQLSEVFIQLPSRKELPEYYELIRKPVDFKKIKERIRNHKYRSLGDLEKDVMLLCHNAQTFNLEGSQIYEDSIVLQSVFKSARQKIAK

T2: hBRM-A AT-BRD (AT-hook and bromodomain of human BRM, long isoform, residues 1358-1508) (human, UniProt P51531 1358-1508, 15N-labelled)
T2 chain: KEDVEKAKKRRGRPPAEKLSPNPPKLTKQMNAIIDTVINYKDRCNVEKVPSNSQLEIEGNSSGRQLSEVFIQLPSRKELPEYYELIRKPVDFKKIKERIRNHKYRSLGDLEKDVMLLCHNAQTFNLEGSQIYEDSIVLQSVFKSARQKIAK

T3: hBRM-A BRD (human BRM bromodomain, long splice isoform, residues 1379-1508) (human, UniProt P51531 1379-1508, 15N-labelled)
T3 chain: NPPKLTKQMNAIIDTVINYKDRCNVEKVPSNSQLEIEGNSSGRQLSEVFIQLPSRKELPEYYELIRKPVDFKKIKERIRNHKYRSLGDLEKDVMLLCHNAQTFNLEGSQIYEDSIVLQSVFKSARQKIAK

T4: BRG1 AT-BRD (AT-hook and bromodomain of human BRG1, residues 1434-1569), wild type (human, UniProt P51532 1434-1569)
T4 chain: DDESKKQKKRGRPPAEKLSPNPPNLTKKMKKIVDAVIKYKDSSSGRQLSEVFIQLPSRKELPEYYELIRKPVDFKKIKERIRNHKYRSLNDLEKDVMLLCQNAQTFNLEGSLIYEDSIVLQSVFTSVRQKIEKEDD

B1: H4(15-25)K20ac histone peptide (peptide)
peptide: AKRHRK(Ac)VLRDN
B2: H3(5-23) histone peptide, unmodified (peptide)
peptide: QTARKSTGGKAPRKQLATK
B3: H3(9-19)K14ac histone peptide (peptide)
peptide: KSTGGK(Ac)APRKQ
B4: H3(23-34)K27ac histone peptide (peptide)
chain: KAARK(Ac)SAPATGG
B5: hBRM-B BRD (human BRM bromodomain, short splice isoform, residues 1379-1399 and 1418-1508) (domain or fragment)
chain: NPPKLTKQMNAIIDTVINYKDSSGRQLSEVFIQLPSRKELPEYYELIRKPVDFKKIKERIRNHKYRSLGDLEKDVMLLCHNAQTFNLEGSQIYEDSIVLQSVFKSARQKIAK
modifications: 15N-labelled
B6: H3(18-28)K23ac histone peptide (peptide)
peptide: KQLATK(Ac)AARKS

How the values were obtained:
[1] = target: B5; assay: NMR
[2] = target: T1, hBRM-B AT-BRD (AT-hook and bromodomain …); assay: NMR
[3] = target: T2, hBRM-A AT-BRD (AT-hook and bromodomain …); assay: NMR
[4] = target: T3, hBRM-A BRD (human BRM bromodomain, long …); assay: NMR
[5] = target: T4, BRG1 AT-BRD (AT-hook and bromodomain of …); assay: NMR
[6] = target: T1, hBRM-B AT-BRD (AT-hook and bromodomain …); assay: NMR; pre-bound to DNAI
[7] = target: T1, hBRM-B AT-BRD (AT-hook and bromodomain …); assay: NMR; Kd,obs, AT-BRD pre-bound to DNAI
[8] = target: H3(23-34); assay: NMR

Kd [1] [µM] | Kd [3] [µM] | Kd [5] [µM] | Binder | further results
2400 |  |  | B1 | 
> 7000 |  |  | B2 | 
 | 810 | 940 | B3 | Kd [2]: 760 µM; Kd [4]: 880 µM; Kd [6]: 1120 µM; Kd [7]: 1120 µM
> 7000 | > 35000 | > 3000 | B4 | 
 |  |  | B5 | Kd [8]: > 16000 µM
3500 |  |  | B6 | 
